Measured values taken from paper PMC11574045, “A cofactor-induced repressive type of transcription factor condensation can be induced by synthetic peptides to suppress tumorigenesis” (The EMBO Journal, 2024).

What was measured:
[1] = test system: HEK293FT cells transfected with TF library; test: Screening of TF condensates based on fluorescent puncta; format: cell-based; settings: Figure 1B numerical data; TF library screen, one value per transcriptional factor
Method in brief: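 TF plasmids (final 1.6 μg/ml) reverse-transfected with PEI (4.8 μg/ml) into HEK293FT cells; after 60 h, cells cultured ±glucose for 12 h, fixed in 4% PFA and immunostained for Flag or GAL4 tags with Alexa 488 secondaries. Puncta scored by automated imaging of 50 random fields per well.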

GFP-TEAD4 condensates = test: siRNA screening based on TEAD4 condensate; format: cell-based; settings: Figure 2B source data; siRNA against the named gene; Z score based analysis
Experimental: siRNA reagents were obtained from the Dharmacon Human ON-TARGETplus siRNA Smartpool Library (Thermo) as described previously (Tang et al, [2020]). […] Lipofectamine RNAiMAX reagent (Thermo) at a volume of 0.05 μl per well was then added to the siRNA-loaded plates. Subsequently, cells expressing GFP-TEAD4 were seeded into the plate at 2000 cells per well. After subsequent transfection for 48 h, the cells were fixed with 4% PFA at room temperature for 30 min. DAPI was used to identify individual nuclei. The plates were kept at 4 °C in the dark before being analyzed using the Opera system. Twenty focus fields per well were scanned and analyzed. Scrambled siRNA was used as an internal reference on each plate.

HGC-27 cells = test: siRNA screening based on cell growth; set-up: species or system human; settings: Figure 2B source data; siRNA against the named gene; Z score based analysis
Experimental: For screening based on cell growth, HGC-27 cells (2000 per well) were seeded into a 96-well plate overnight. The individual siRNAs targeting 192 BioID-identified genes were then added into each well to a final concentration of 25 nM. After subsequent incubation for 48 h, the cells were analyzed using an ATP-based CellCounting-Lite^TM 2.0 reagent (Vazyme, Nanjing, China) according to the manufacturer’s instructions. The intracellular ATP contents were measured using an EnSight™ Multimode Microplate Reader (Perkin Elmer).

[2] = test system: GFP-TEAD4 condensates in HEK293FT cells; test: GFP-TEAD4 condensate imaging, condensed fraction in cells; format: cell-based; settings: Figure 2D source data, GFP-TEAD4 condensates with co-expressed cofactor, with or without 1,6-Hex, single measurement

B1: CREM (protein, UniProt Q03060 1-345, looked up)
cAMP-responsive element …: MTMETVESQHDGSITASLTESKSAHVQTQTGQNSIPALAQVSVAGSGTRRGSPAVTLVQLPSGQTIHVQGVIQTPQPWVIQSSEIHTVQVAAIAETDESAESEGVIDSHKRREILSRRPSYRKILNELSSDVPGVPKIEEERSEEEGTPPSIATMAVPTSIYQTSTGQYIAIAQGGTIQISNPGSDGVQGLQALTMTNSGAPPPGATIVQYAAQSADGTQQFFVPGSQVVVQDEETELAPSHMAAATGDMPTYQIRAPTAALPQGVVMAASPGSLHSPQQLAEEATRKRELRLMKNREAAKECRRRKKEYVKCLESRVAVLEVQNKKLIEELETLKDICSPKTDY
[1]
  Z score of condensed fraction: -0.7399

B2: CRSP9 (protein, UniProt O43513 1-233, looked up)
Mediator of RNA polymerase II …: MGEPQQVSALPPPPMQYIKEYTDENIQEGLAPKPPPPIKDSYMMFGNQFQCDDLIIRPLESQGIERLHPMQFDHKKELRKLNMSILINFLDLLDILIRSPGSIKREEKLEDLKLLFVHVHHLINEYRPHQARETLRVMMEVQKRQRLETAERFQKHLERVIEMIQNCLASLPDDLPHSEAGMRVKTEPMDADDSNNCTGQNEHQRENSGHRRDQIIEKDAALCVLIDEMNERP
[1]
  Z score of condensed fraction: -0.379

B3: RFXANK (protein)
chain: MELTQPAEDLIQTQQTPASELGDPEDPGEEAADGSDTVVLSLFPCTPEPVNPEPDASVSSPQAGSSLKHSTTLTNRQRGNEVSALPATLDSLSIHQLAAQGELDQLKEHLRKGDNLVNKPDERGFTPLIWASAFGEIETVRFLLEWGADPHILAKERESALSLASTGGYTDIVGLLLERDVDINIYDWNGGTPLLYAVRGNHVKCVEALLARGADLTTEADSGYTPMDLAVALGYRKVQQVIENHILKLFQSNLVPADPE
GFP-TEAD4 condensates
  Z score of condensed fraction: -3.941
HGC-27 cells
  Z score of cell growth: 3.094
[2]; replicate 1 of 9
  Condensed fraction: 37.5428%
[2]; replicate 2 of 9
  Condensed fraction: 33.3337%
[2]; replicate 3 of 9
  Condensed fraction: 44.4467%
[2]; replicate 4 of 9
  Condensed fraction: 47.0652%
[2]; replicate 5 of 9
  Condensed fraction: 51.3041%
[2]; replicate 6 of 9
  Condensed fraction: 37.5405%
[2]; replicate 7 of 9
  Condensed fraction: 26.519%
[2]; replicate 8 of 9
  Condensed fraction: 36.7045%
[2]; replicate 9 of 9
  Condensed fraction: 37.5001%

B4: CREBL2 (protein, UniProt O60519 1-120, looked up)
cAMP-responsive …: MDDSKVVGGKVKKPGKRGRKPAKIDLKAKLERSRQSARECRARKKLRYQYLEELVSSRERAICALREELEMYKQWCMAMDQGKIPSEIKALLTGEEQNKSQQNSSRHTKAGKTDANSNSW
[1]
  Z score of condensed fraction: 0.3406

B5: CREB5 (protein, UniProt Q02930 1-508, looked up)
Cyclic AMP-responsive …: MIYEESKMNLEQERPFVCSAPGCSQRFPTEDHLMIHRHKHEMTLKFPSIKTDNMLSDQTPTPTRFLKNCEEVGLFSELDCSLEHEFRKAQEEESSKRNISMHNAVGGAMTGPGTHQLSSARLPNHDTNVVIQQAMPSPQSSSVITQAPSTNRQIGPVPGSLSSLLHLHNRQRQPMPASMPGTLPNPTMPGSSAVLMPMERQMSVNSSIMGMQGPNLSNPCASPQVQPMHSEAKMRLKAALTHHPAAMSNGNMNTMGHMMEMMGSRQDQTPHHHMHSHPHQHQTLPPHHPYPHQHQHPAHHPHPQPHHQQNHPHHHSHSHLHAHPAHHQTSPHPPLHTGNQAQVSPATQQMQPTQTIQPPQPTGGRRRRVVDEDPDERRRKFLERNRAAATRCRQKRKVWVMSLEKKAEELTQTNMQLQNEVSMLKNEVAQLKQLLLTHKDCPITAMQKESQGYLSPESSPPASPVPACSQQQVIQHNTITTSSSVSEVVGSSTLSQLTTHRTDLNPIL
[1]
  Z score of condensed fraction: -0.7141

B6: CRSP6 (protein, UniProt Q9NVC6 1-651, looked up)
Mediator of RNA polymerase II …: MSGVRAVRISIESACEKQVHEVGLDGTETYLPPLSMSQNLARLAQRIDFSQGSGSEEEEAAGTEGDAQEWPGAGSSADQDDEEGVVKFQPSLWPWDSVRNNLRSALTEMCVLYDVLSIVRDKKFMTLDPVSQDALPPKQNPQTLQLISKKKSLAGAAQILLKGAERLTKSVTENQENKLQRDFNSELLRLRQHWKLRKVGDKILGDLSYRSAGSLFPHHGTFEVIKNTDLDLDKKIPEDYCPLDVQIPSDLEGSAYIKVSIQKQAPDIGDLGTVNLFKRPLPKSKPGSPHWQTKLEAAQNVLLCKEIFAQLSREAVQIKSQVPHIVVKNQIISQPFPSLQLSISLCHSSNDKKSQKFATEKQCPEDHLYVLEHNLHLLIREFHKQTLSSIMMPHPASAPFGHKRMRLSGPQAFDKNEINSLQSSEGLLEKIIKQAKHIFLRSRAAATIDSLASRIEDPQIQAHWSNINDVYESSVKVLITSQGYEQICKSIQLQLNIGVEQIRVVHRDGRVITLSYQEQELQDFLLSQMSQHQVHAVQQLAKVMGWQVLSFSNHVGLGPIESIGNASAITVASPSGDYAISVRNGPESGSKIMVQFPRNQCKDLPKSDVLQDNKWSHLRGPFKEVQWNKMEGRNFVYKMELLMSALSPCLL
[1]
  Z score of condensed fraction: -0.7101

B7: TEAD4 (protein, UniProt Q15561 1-434, looked up)
Transcriptional enhancer …: MEGTAGTITSNEWSSPTSPEGSTASGGSQALDKPIDNDAEGVWSPDIEQSFQEALAIYPPCGRRKIILSDEGKMYGRNELIARYIKLRTGKTRTRKQVSSHIQVLARRKAREIQAKLKDQAAKDKALQSMAAMSSAQIISATAFHSSMALARGPGRPAVSGFWQGALPGQAGTSHDVKPFSQQTYAVQPPLPLPGFESPAGPAPSPSAPPAPPWQGRSVASSKLWMLEFSAFLEQQQDPDTYNKHLFVHIGQSSPSYSDPYLEAVDIRQIYDKFPEKKGGLKDLFERGPSNAFFLVKFWADLNTNIEDEGSSFYGVSSQYESPENMIITCSTKVCSFGKQVVEKVETEYARYENGHYSYRIHRSPLCEYMINFIHKLKHLPEKYMMNSVLENFTILQVVTNRDTQETLLCIAYVFEVSASEHGAQHHIYRLVKE
GFP-TEAD4 condensates
  Z score of condensed fraction: 1.0247
HGC-27 cells
  Z score of cell growth: 0.6975
[1]
  Z score of condensed fraction: 3.255

B8: CRY1 (protein, UniProt Q16526 1-586, looked up)
Cryptochrome-1: MGVNAVHWFRKGLRLHDNPALKECIQGADTIRCVYILDPWFAGSSNVGINRWRFLLQCLEDLDANLRKLNSRLFVIRGQPADVFPRLFKEWNITKLSIEYDSEPFGKERDAAIKKLATEAGVEVIVRISHTLYDLDKIIELNGGQPPLTYKRFQTLISKMEPLEIPVETITSEVIEKCTTPLSDDHDEKYGVPSLEELGFDTDGLSSAVWPGGETEALTRLERHLERKAWVANFERPRMNANSLLASPTGLSPYLRFGCLSCRLFYFKLTDLYKKVKKNSSPPLSLYGQLLWREFFYTAATNNPRFDKMEGNPICVQIPWDKNPEALAKWAEGRTGFPWIDAIMTQLRQEGWIHHLARHAVACFLTRGDLWISWEEGMKVFEELLLDADWSINAGSWMWLSCSSFFQQFFHCYCPVGFGRRTDPNGDYIRRYLPVLRGFPAKYIYDPWNAPEGIQKVAKCLIGVNYPKPMVNHAEASRLNIERMKQIYQQLSRYRGLGLLASVPSNPNGNGGFMGYSAENIPGCSSSGSCSQGSGILHYAHGDSQQTHLLKQGRSSMGTGLSGGKRPSQEEDTQSIGPKVQRQSTN
[1]
  Z score of condensed fraction: -0.5227
